This assay has as its target hCD52 peptide mimetope (affinity measurement of Table 1) (human). Briefly: affinity on a hCD52 peptide mimetope, method not stated (footnote of Table 1).

Regarding Campath-1H (antibody), the Kd (as a rule, the constant that tells how readily two partners part at equilibrium) was 68 nM. In other words, the double-digit nanomolar range.

Values taken from patent publication US20240035022A1.
